Our source for the EC50, Emax and Kd values is patent publication US20250057968A1, “ANTI-DLL3 ANTIBODY AND PHARMACEUTICAL USE THEREOF, AND ANTIBODY-DRUG CONJUGATE CONTAINING ANTI-DLL3 ANTIBODY” (Jiangsu Hengrui Pharmaceuticals Co., Ltd., priority 2021, published 2025).

For test [1], the target named is T1, Human DLL3 full-length protein on cells (human, UniProt Q9NYJ7 27-618).
T1 construct: H1184 and DMS53 express DLL3 themselves; The cell line is named under assay; also called H1184 cells; DLL3/H82
T1 sequence: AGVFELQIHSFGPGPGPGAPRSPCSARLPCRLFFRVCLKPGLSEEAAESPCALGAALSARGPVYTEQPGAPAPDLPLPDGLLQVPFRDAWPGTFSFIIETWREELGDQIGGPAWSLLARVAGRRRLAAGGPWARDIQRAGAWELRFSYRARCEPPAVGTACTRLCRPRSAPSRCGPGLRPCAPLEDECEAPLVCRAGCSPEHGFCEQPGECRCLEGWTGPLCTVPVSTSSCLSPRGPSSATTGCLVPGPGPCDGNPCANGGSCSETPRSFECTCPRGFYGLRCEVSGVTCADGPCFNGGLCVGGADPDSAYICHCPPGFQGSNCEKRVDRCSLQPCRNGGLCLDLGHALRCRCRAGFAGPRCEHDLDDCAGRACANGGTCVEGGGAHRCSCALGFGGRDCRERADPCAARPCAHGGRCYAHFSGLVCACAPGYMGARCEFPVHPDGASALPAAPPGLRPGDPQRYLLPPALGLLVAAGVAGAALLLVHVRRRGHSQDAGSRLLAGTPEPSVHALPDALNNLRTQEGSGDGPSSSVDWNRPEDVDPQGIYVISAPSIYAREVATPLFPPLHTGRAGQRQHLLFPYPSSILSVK
The test can be described thus: FACS on H1184 cells. The protocol:
(§1) Cells of the DLL3-expressing small cell lung cancer cell lines H1184 (ATCC, Cat. No. CRL-5858), DLL3/H82, cynoDLL3/CHO-s, and RatDLL3/CHO-s were suspended at 1×10^6/mL in FACS buffer (1% BSA+pH 7.4 PBS), and the cell suspensions were added to a 96-well round-bottom plate (Corning, 3795) at 100 μL/well. The plate was centrifuged at 300 g for 5 min, and the supernatant was removed. Different concentrations of test antibodies were added at 100 μL/well. The plate was incubated in the dark in a refrigerator at 4° C. for 1 h. After 3 washes by centrifugation at 300 g, working concentrations of APC anti-human IgG Fc (BioLegend, 410712) or PE F(ab′)2-goat anti-human IgG (invitrogen, H10104) were added. The plate was incubated in the dark in a refrigerator at 4° C. for 40 min. After 3 washes by centrifugation at 300 g, the geometric mean fluorescence intensity was measured on an Invitrogen flow cytometer, and the EC50 values of the antibodies in binding to DLL3-expressing cells were calculated.

The target in test [2] is T2, Cynomolgus monkey DLL3 full-length protein on CHO-s cells (cynomolgus monkey, UniProt Q9NYJ7 27-618 (human entry)).
T2 construct: also called cynoDLL3/CHO-s
T2 chain: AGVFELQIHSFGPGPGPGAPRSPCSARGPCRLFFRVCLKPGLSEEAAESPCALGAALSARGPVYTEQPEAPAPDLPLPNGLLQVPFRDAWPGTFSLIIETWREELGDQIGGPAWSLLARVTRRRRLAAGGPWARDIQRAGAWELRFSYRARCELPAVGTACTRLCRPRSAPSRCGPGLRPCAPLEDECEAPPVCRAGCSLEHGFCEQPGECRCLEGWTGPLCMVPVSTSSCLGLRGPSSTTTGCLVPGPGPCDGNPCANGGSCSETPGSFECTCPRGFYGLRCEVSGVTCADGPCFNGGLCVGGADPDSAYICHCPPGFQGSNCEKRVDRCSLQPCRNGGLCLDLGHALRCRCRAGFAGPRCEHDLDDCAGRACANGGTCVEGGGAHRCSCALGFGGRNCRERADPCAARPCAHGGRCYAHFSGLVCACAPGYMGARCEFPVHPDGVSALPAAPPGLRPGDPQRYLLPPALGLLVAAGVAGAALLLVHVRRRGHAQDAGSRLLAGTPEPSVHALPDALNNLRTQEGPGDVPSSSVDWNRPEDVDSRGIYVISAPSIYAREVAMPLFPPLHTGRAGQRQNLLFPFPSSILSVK
Nature of the test: FACS on cynoDLL3/CHO-s cells. As for the experimental part: as §1

Test [3] has as its target T3, human DLL3 (ACRO, DLL3-H52H4) (human, UniProt Q9NYJ7 27-479).
T3 construct: bought antigen of the Biacore assay; construct not described
T3 sequence (looked up): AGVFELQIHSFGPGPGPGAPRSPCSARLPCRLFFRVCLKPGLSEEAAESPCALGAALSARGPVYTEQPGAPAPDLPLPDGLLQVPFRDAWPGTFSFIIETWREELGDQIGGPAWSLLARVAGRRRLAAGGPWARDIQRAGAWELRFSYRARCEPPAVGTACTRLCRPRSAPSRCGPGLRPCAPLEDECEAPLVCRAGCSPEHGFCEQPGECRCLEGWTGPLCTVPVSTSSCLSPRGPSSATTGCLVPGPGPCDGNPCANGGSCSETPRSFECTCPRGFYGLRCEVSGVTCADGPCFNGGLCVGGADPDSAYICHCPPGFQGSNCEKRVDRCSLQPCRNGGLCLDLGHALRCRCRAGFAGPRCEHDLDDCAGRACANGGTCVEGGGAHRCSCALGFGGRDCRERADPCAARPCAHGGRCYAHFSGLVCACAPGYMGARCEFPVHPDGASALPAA
Nature of the test: SPR (Biacore 8K), antibody captured on Protein A chip, 1:1 fit. An excerpt: Test antibodies were affinity-captured with a Protein A biosensor chip (Cat. #29127556, Cytiva) for 18 seconds, and then the antigens human DLL3 (ACRO, DLL3-H52H4), cynomolgus monkey DLL3 (KACTUS, DLL-RM103), and mouse DLL3 (KACTUS, DLL-MM103) were allowed to flow over the surface of the chip for 180 seconds, followed by 600 seconds of dissociation. Reaction signals were detected in real time using a Biacore 8K (Cytiva) instrument to obtain association and dissociation curves. After the dissociation in each experimental cycle, the biosensor chip was washed and regenerated with a 10 mM glycine-hydrochloric acid solution (pH 1.5) (Cat. #BR-1003-54, Cytiva). A 1:1 model was fit to the data. The results are shown in Table 12-1, Table 12-2, and Table 12-3.

The term EC50 denotes the concentration at which the effect is half-maximal. For orientation: Kd means a measure of binding affinity in units of concentration.

B1: Hu100 (antibody, human IgG1, kappa, V domains shown)
VH: EVQLVESGGGLVKPGGSLRLSCAASGFTFSDSGMHWIRQAPGKGLEWVSYISSGSSTIHYADTVKGRFTISRDNAKNSLYLQMNSLRAEDTAVYYCASPLYYYGRSYNAVAYWGQGTTVTVSS
VL: DIQMTQSPSSLSASVGDRVTITCHASQNINVWLSWYQQKPGKVPKLLIYKASDLHTGVPSRFSGSGSGTDFTLTISSLQPEDVATYYCQQGQSYPLTFGGGTKVEIKR
notes: also called hAb100L1H1
As to B1, in test [1], the midpoint of the response, the EC50, lay at 0.15 nM and the Emax came out at 2110. For the same molecule, in test [2], it took 0.55 nM to reach a half-maximal effect (EC50) and the Emax was found to be 2080. This molecule also yielded a Kd in test [3] of 0.471 nM.

B2: Hu6 (antibody, human IgG1, kappa, V domains shown)
VH: EVQLVQSGSELKKPGASVKVSCKASGYTFTDYYMNWVRQAPGQGLEWMGIINPYSGVTIYNHKFKGRFALSVDKSSNTAYLQISSLKAEDTAVYYCARQDSLLDYAMDYWGQGTTVTVSS
VL: DIQMTQSPSSLSASVGDRVTITCHASQGISGNMGWLQQKPGKAPKGLIYHGANLEDGVPSRFSGSGSGADYTLTISSLQPEDFADYYCVQYAQFPYTFGGGTKVEIKR
notes: also called hAb6L4H12
Take B2: in test [1], the EC50 was determined as 0.06 nM and the Emax is 2070. In test [2], the concentration for a half-maximal effect (EC50) is 0.32 nM and the Emax is 1760. In test [3], this molecule displayed a Kd of 0.594 nM.
